Experimental data taken from patent publication US20220235118A1 (IMMUNOME, published 2022).

Assays:
[1] = target: T1, SARS-CoV-2 Spike S1 domain D614G (SARS-CoV-2, UniProt P0DTC2 16-685); assay: HTRF, soluble S1 construct
T1 construct: domain: S1

[2] = target: T2, SARS-CoV-2 Spike S1 domain A222S, D614G (SARS-CoV-2, UniProt P0DTC2 16-685); assay: HTRF, soluble S1 construct
T2 construct: domain: S1; also called Spanish (A222S, D614G)

[3] = target: T3, SARS-CoV-2 Spike S1 domain K417N, E484K, N501Y, D614G (SARS-CoV-2, UniProt P0DTC2 16-685); assay: HTRF, soluble S1 construct
T3 construct: domain: S1; also called S. African (K417N, E484K, N501Y, D614G); B.1.351

[4] = target: T4, SARS-CoV-2 Spike S1 domain ΔHV69/70, ΔY144, N501Y, A570D, D614G, P681H (SARS-CoV-2, UniProt P0DTC2 16-685); assay: HTRF, soluble S1 construct
T4 construct: domain: S1; also called U.K. (B.1.1.7); DHV69/70, DY144, N501Y, A570D, D614G, P681H

[5] = target: T5, SARS-CoV-2 Spike S1 domain ΔHV69/70, Y453F, D614G (SARS-CoV-2, UniProt P0DTC2 16-685); assay: HTRF, soluble S1 construct
T5 construct: domain: S1; also called Denmark (ΔHV69/70, Y453F, D614G); DHV69/70, Y453F, D614G

[6] = target: T6, SARS-CoV-2 Spike RBD N439K (SARS-CoV-2, UniProt P0DTC2 319-541); assay: HTRF, soluble RBD construct
T6 construct: domain: RBD

[7] = target: T7, SARS-CoV-2 Spike RBD E406Q (SARS-CoV-2, UniProt P0DTC2 319-541); assay: HTRF, soluble RBD construct
T7 construct: domain: RBD

[8] = target: T8, SARS-CoV-2 Spike RBD K417N (SARS-CoV-2, UniProt P0DTC2 319-541); assay: HTRF, soluble RBD construct
T8 construct: domain: RBD

[9] = target: T9, SARS-CoV-2 Spike RBD N501Y (SARS-CoV-2, UniProt P0DTC2 319-541); assay: HTRF, soluble RBD construct
T9 construct: domain: RBD

[10] = target: T10, SARS-CoV-2 Spike RBD Y453F (SARS-CoV-2, UniProt P0DTC2 319-541); assay: HTRF, soluble RBD construct
T10 construct: domain: RBD

[11] = target: T11, SARS-CoV-2 Spike RBD A352S (SARS-CoV-2, UniProt P0DTC2 319-541); assay: HTRF, soluble RBD construct
T11 construct: domain: RBD

[12] = target: T12, SARS-CoV-2 Spike RBD A475V (SARS-CoV-2, UniProt P0DTC2 319-541); assay: HTRF, soluble RBD construct
T12 construct: domain: RBD

Binder	fold over background [1] [fold over background]	fold over background [2] [fold over background]	fold over background [3] [fold over background]	fold over background [4] [fold over background]	fold over background [5] [fold over background]	fold over background [6] [fold over background]	fold over background [7] [fold over background]	fold over background [8] [fold over background]	fold over background [9] [fold over background]	fold over background [10] [fold over background]	fold over background [11] [fold over background]	fold over background [12] [fold over background]
PR194_00292 (antibody, V domains shown) VH: QVQLQQWGAGLLKPSETLSLTCAVYGGSLSGYYWSWIRQPPGKGLEWIGEINHSGSTNHNPSLKSRVSISVDTSKNQFSLKLSSVTAADTAVYYCARAWKYSSSWYSGGIYYGMDVWGQGTTVTVSS VL: QSALTQPASVSGSPGQSITISCSGTSSDVGSYNLVSWYQQHPGKAPKLMIYEGTKRPSGVSNRFSSSKSGNTASLTISGLQAEDEADYYCCSYAGFSTWVFGGGTKLTVL	1.06	1.02	2.26	2.37	2.59	1.06	0.967	1.03	0.996	0.974	0.94	1.02
PR201_00151 (antibody, V domains shown) VH: RVTLRESGPALVKPTQTLTLTCTFSGFSLNTSGMCVSWIRQPPGKALEWLARIDWDDDKYYSTSLETRLTISKDTSKNQVVLTMTNLDPVDTGTYYCARISIQSRGGGADYWGQGTLVTVSS VL: DIQMTQSPSSLSASVGDRVTITCRASQSISSYLHWYQQKSGKAPKLLIFVASTLQSGVPSRFSGSGSGTDFTLTISSLQPEDSAAYYCQQSYSPPWTFGQGTKVEIK	7.25	7.29	1.05	4.22	6.53	6.03	8.3	1.09	6.16	5.48	7.06	5.7
PR196_00413_a (antibody, V domains shown) VH: QVQLVQSGAEVKKPGSSVKVSCKASGGTFSSYAITWVRQAPGQGLEWMGGIIPIFGTANYAQKFQGRVTITADESTSTAYMELSSLRSEDTAVYYCASDYGDSPLGYWGQGTLVTVSS VL: not shown	9.92	8.74	9	6.39	9.68	1.07	1.02	1.06	1.08	1.06	1.07	1.01
PR199_00255 (antibody, V domains shown, also called IMM20279; PR190_00255) VH: QVQLVESGGGVVQPGRSLRLSCAASGFTFSTYGMHWVRQAPGKGLEWVAVIWYNGINKHYADSVKGRFTISRDNSKNTLYLQMSSLRVEDTAVYYCARDWGTLTTLFDFWGQGTLVTVSS VL: DIQMTQSPSSLSASVGERATITCRASQSISSHLNWYQQKPGKAPKFLIYGASSLQSGVPSRFSGSGSGTDFTLTISSLQPEDFATYYCQQSYSTPPWTFGQGTKVEIK	11.2	9.3	9.48	7.29	9.63	6.09	10.9	7.29	6.15	–	8.26	7.64
PR197_00647 (antibody, V domains shown) VH: QVQLVESGGGVVQPGRSLRLSCAASGFTFSSYAMHWVRQAPGKGLQWVTLISYDGGDKYYADSVRGRFTISRDNSKNTLYLQMNSLRTEDTAVYYCARDRPQTGDWFPPIPTGVLDVWGQGTTVTVSS VL: DIQMTQSPSSLSASVGDRVTITCRASQGISNYLAWFQQKPGKAPKSLIYAASSLQSGVPSRFSGSESGTDFTLTISSLQPEDFATYYCQQYHSYPITFGQGTRLEIK	8.3	9.54	7.72	1.1	1.07	1.04	1.03	1.03	1.06	1.11	1.04	0.999
PR194_00364_b (antibody, V domains shown) VH: EVQLVESGGGLVKPGGSLRLSCSASGFTFTTYTMNWVRQAPGKGLEWVSSISSTGLSIYYADSVKGRFTISRDNAKNSLYLQMNSLRAEDTAVYYCARDPSPTTIYYYYYMDVWGKGTTVTVSS VL: QSALTQPASVSGSPGQSITISCTGTSSDVGTYNLVSWYQHYPGKAPKLIIYEVSKRPSGVSDRFSGSKSGNTASLTISGLQAEDEADYYCCSYAGSTTGYVVFGGGTKLTVL	–	–	–	–	–	–	–	–	–	–	0.917	–
PR194_00453 (antibody, V domains shown) VH: QLQLQESGPGLVKPSETLSLTCTVSGGSISSSSSYWGWFRQPPGKGLGWIRSIYYSGSTYYNPSLKSRVTMSVDTSKNQFSLKLSSVTAADTAVYYCARAKFSVWDNYRYPFDYWGQGILVTVSS VL: not shown	9.55	9.21	9.57	9.06	9.45	1.05	0.99	1.1	1.03	0.987	1.11	1.06
PR194_00068 (antibody, V domains shown) VH: EVQLLESGGGLVQPGGSLRLSCSASGFTFTNYAMSWVRQAPGKGLEWVSTISGSGGSTYYADSVKGRFTISRDNSKSTLFLQMNSLRAEDTAIYYCANSGPTGDLDYWGQGTLVTVSS VL: SYELTQPPSVSVSPGQTTLSLTCSGDKLGNKYVCWYQQKPGQSPVLVIYQDTKRPSGIPERVSGSNSGDTATLTISGTQAMDEADYYCQAWDSSTAVFGGGTKLTVL	–	–	–	–	–	1.06	–	–	–	–	–	–
